Assay results published in the supplement of paper PMC10567573.

B1: INTS3 (parent)
chain: FHPIKETVVEEPVDITPYLDQLDE

Variants of: B1
Experiment: protein stability index of a GFP-peptide fusion (GPS, HEK-293T) (PSI 1-6); higher = more stable
Conditions: c terminus: a fixed tail appended
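Note: lentivirally expressed fusions sorted by FACS into six bins by GFP to DsRed ratio, PSI derived from sequencing read proportions per bin multiplied by bin number.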

In order of falling protein stability index:
1. F1D  5.78
2. F1K  5.66
3. F1N  5.47
4. H2S  5.47
5. F1A  5.42
6. H2D  5.42
7. F1L  5.28
8. H2K  5.24
9. F1M  5.23
10. F1R  5.18
11. K5E  5.06
12. P3E  5
13. F1I  4.99
14. K5S  4.99
15. H2Q  4.7
16. H2Y  4.63
17. P3N  4.63
18. H2T  4.62
19. I15E  4.59
20. K5A  4.47
21. K5T  4.29
22. T7E  4.19
23. T7G  4.18
24. I15R  4.13
25. H2C  4.11
26. L22Q  4.11
27. I4E  4.06
28. P3S  4.03
29. K5C  3.99
30. Y18Q  3.95
31. V8G  3.91
32. V8A  3.87
33. Y18V  3.87
34. I4N  3.85
35. L22N  3.85
36. V13D  3.83
37. L22I  3.83
38. L22C  3.82
39. Y18S  3.77
40. V8C  3.76
41. P3R  3.76
42. P17Y  3.75
43. E24D  3.75
44. Q21A  3.73
45. K5F  3.73
46. T16M  3.73
47. V9A  3.72
48. H2I  3.71
49. Y18T  3.71
50. Y18G  3.69
51. L22E  3.68
52. L19N  3.66
53. Q21E  3.62
54. V9P  3.62
55. Y18M  3.58
56. Y18R  3.58
57. T7S  3.57
58. Q21G  3.56
59. V8L  3.56
60. P3H  3.56
61. T7M  3.55
62. V8T  3.53
63. P12E  3.52
64. P12Q  3.52
65. Q21D  3.51
66. Y18H  3.5
67. V8K  3.49
68. D20E  3.48
69. Y18C  3.47
70. P3T  3.43
71. T16I  3.41
72. L22V  3.41
73. Y18E  3.36
74. V13E  3.34
75. T16S  3.32
76. I4C  3.31
77. T7P  3.31
78. F1Y  3.3
79. D20S  3.3
80. E6T  3.28
81. I15L  3.25
82. I15G  3.23
83. P3C  3.23
84. P17V  3.21
85. L19C  3.21
86. V13Y  3.2
87. P17N  3.19
88. E11G  3.19
89. T16N  3.18
90. P17M  3.17
91. I4R  3.17
92. E24N  3.17
93. E11D  3.15
94. K5I  3.14
95. L19I  3.12
96. Y18W  3.11
97. P12L  3.1
98. D14P  3.09
99. T16C  3.09
100. E24T  3.09
101. V13C  3.08
102. Q21N  3.06
103. P12V  3.06
104. T7I  3.06
105. V13K  3.05
106. Q21L  3.05
107. D14A  3.05
108. P12K  3.04
109. E6G  3.04
110. V9I  3.04
111. T7R  3.04
112. L22F  3.03
113. L19F  3.02
114. P12R  3.01
115. E11N  2.98
116. D20R  2.96
117. E11P  2.95
118. V8M  2.95
119. P12I  2.93
120. P17L  2.92
121. D14Q  2.91
122. D14I  2.9
123. P17K  2.88
124. E24L  2.85
125. T16R  2.84
126. K5Y  2.83
127. P12Y  2.81
128. P12W  2.79
129. E11C  2.78
130. D20K  2.78
131. E11L  2.76
132. E24G  2.73
133. Q21R  2.71
134. Y18I  2.7
135. T7L  2.7
136. D23S  2.68
137. E24H  2.66
138. L22M  2.57
139. V8W  2.54
140. Q21Y  2.5
141. E11R  2.49
142. E24I  2.44
143. D14G  2.42
144. E24K  2.42
145. D20F  2.41
146. P17R  2.39
147. E10A  2.39
148. D23A  2.35
149. E24R  2.33
150. I15N  2.32
151. D23V  2.3
152. D23M  2.22
153. E10C  2.19
154. E11W  2.11
155. D20V  2.11
156. E6Q  2.1
157. E10R  2.1
158. D20Y  2.08
159. D20M  2.02
160. V9W  2
161. D20P  2
162. E6L  1.9
163. E6V  1.87
164. E10K  1.84
165. E24W  1.84
166. E6Y  1.75
167. P3W  1.73
